Results as given in patent US7465582B1, “Nurr-1 induction of a dopaminergic neuronal fate in a neural stem cell or neural progenitor cell in vitro” (Neuro Therapeutics AB, priority 2000, dated 2008).

B1: GDNF: Glial cell line-Derived Neurotrophic Factor (protein, UniProt P39905 78-211, looked up)
Glial cell line-derived …: SPDKQMAVLPRRERNRQAAAANPENSRGKGRRGQRGKNRGCVLTAIHLNVTDLGLGYETKEELIFRYCSGSCDAAETTYDKILKNLSRNRRLVSDKVGQACCRPIAFDDDLSFLDDNLVYHILRKHSAKRCGCI
B2: BDNF: Brain Derived Neurotrophic Factor (protein, UniProt P23560 19-247, looked up)
Neurotrophic factor BDNF …: APMKEANIRGQGGLAYPGVRTHGTLESVNGPKAGSRGLTSLADTFEHVIEELLDEDQKVRPNEENNKDADLYTSRVMLSSQVPLEPPLLFLLEEYKNYLDAANMSMRVRRHSDPARRGELSVCDSISEWVTAADKKTAVDMSGGTVTVLEKVPVSKGQLKQYFYETKCNPMGYTKEGCRGIDKRHWNSQCRTTQSYVRALTMDSKKRIGWRFIRIDTSCVCTLTIKRGR
B3: CNTF: Ciliary Neurotrophic Factor (protein, UniProt P26441 1-200, looked up)
Ciliary neurotrophic factor: MAFTEHSPLTPHRRDLCSRSIWLARKIRSDLTALTESYVKHQGLNKNINLDSADGMPVASTDQWSELTEAERLQENLQAYRTFHVLLARLLEDQQVHFTPTEGDFHQAIHTLLLQVAAFAYQIEELMILLEYKIPRNEADGMPINVGDGGLFEKKLWGLKVLQELSQWTVRSIHDLRFISSHQTGIPARGSHYIANNKKM
B4: NT-3: neurotrophin-3 (protein, UniProt P20783 139-257, looked up)
Neurotrophin-3: YAEHKSHRGEYSVCDSESLWVTDKSSAIDIRGHQVTVLGEIKTGNSPVKQYFYETRCKEARPVKNGCRGIDDKHWNSQCKTSQTYVRALTSENNKLVGWRWIRIDTSCVCALSRKIGRT

Tests used:
[1] = tested on: Nurr1-c42-derived dopaminergic neurons; assay: Response of TH positive c42 cells in co-culture to neurotrophic factors; assay type: cell-based, mouse; details: 9 DIV, after SR11237 and bFGF induction; for neuritogenesis and/or hypertrophy: BDNF 30 ng/ml, CNTF 10 ng/ml, GDNF 10 ng/ml
Experimental: (§1) C17.2 neural stem cells (Snyder, E. Y. et al. Cell 68, 33-51 (1992)) were maintained and passaged as previously described (Snyder, E. Y. et al. Cell 68, 33-51 (1992)). Ventral mesencephala from E16 rat embryos were dissected, mechanically dissociated and plated at a final density of 1×10^5 cells/cm^2 on poly-D-lysine coated culture wells in a defined, serum-free medium (N^2, consisting of a 1:1 mixture of F12 and DMEM containing insulin (10 ng/ml), transferrin (100 μg/ml), putrescine (100 μM), progesterone (20 nM), selenium (30 nM) glucose (6 mg/ml), and bovine serum albumin (1 mg/ml)). After 24 hours in vitro, co-cultures were initiated by directly plating 2.5−5×10^4 C17.2-derived cells into the primary cultures; all ages of cultures given use this point as 0 DIV. […] Purified Type 1 astrocytes were obtained from mixed glial cultures derived from various regions of P1 rats according to a standard protocol (McCarthy, K. D. et al. J. Cell Biol. 85, 890-902 (1980)). After replating into 6- or 12-well plates, astrocytes were grown to confluency in serum-containing media and changed to N2 medium. After 3-5 DIV, co-cultures were initiated in fresh N2 as described above. All factors were added once, at the initiation of co-culture (concentrations are noted in the Results and Discussion), with the exception of 5-bromodeoxyuridine (BrdU), which was added 4-6 hours prior to fixation. Cultures were maintained in a humidified 5% CO2, 95% air incubator at 37 C and fixed after given time periods with 4% paraformaldehyde for 45 minutes for immunocytochemical analysis.
Fixed cultures were incubated with one of the following antibodies, diluted appropriately in phosphate-buffered saline (PBS) containing 1% bovine serum albumin and 0.3% Triton-X 100: mouse anti-BrdU, 1:50 (DAKO, Denmark), mouse anti-β-tubulin, Type III (TuJ1), 1:250 (Sigma), mouse anti-TH, 1:1000 (Incstar, USA), rabbit anti-β-galactosidase, 1:250 (Cappel, USA) rabbit anti-GFAP, 1:500 (DAKO, Denmark), rabbit anti-AHD-2, 1:4000. Incubations were either carried out at 4° C. overnight, or at room temperature for 1 hour. Both processes yielded similar results. After washing, cultures were incubated for 1-3 hr with appropriate secondary antibodies (biotinylated horse-anti-mouse IgG or goat-anti-rabbit IgG, Vector, USA), 1:100, in the same dilution buffer. […] Quantitative immunocytochemical data represent means and standard errors from 100-500 cells counted in each of 3-6 separate wells from 2-4 experiments. For quantitation of TH expression in co-cultures of primary and C-17.2-derived cells, TH was visualized with the brightfield AEC substrate, while β-gal was assessed using FITC, thus all data expressed as “% TH+” represents the number of TH+/β-gal+divided by total β-gal positive cells. […]

[2] = tested on: Nurr1 over-expressing C17.2 clones; assay: Treatment of Nurr1 clones with trophic factors, mitogens, cytokines and other agents; TH immunoreactivity; assay type: cell-based, mouse; details: Nurr1 clones without co-culture; factors alone or combined
Source text: C17.2 cells were cotransfected with a CMX-Nurr1 expression vector (Perlmann, T. et al. Genes Dev. 9, 769-782 (1995)) and PGK-puromycin resistance plasmids (Nurr1 clones) or a PGK-puromycin alone (mock clones). For reporter assays, C17.2 parental cells were transfected with the Nurr1 expression vector, the reporter plasmid (NGFIB-binding response element (NBRE) triplet upstream of TK minimal promoter fused to firefly luciferase) and a pRSV-alkaline phosphatase plasmid at a 2:1:2 ratio.
as §1, with “Cultures were maintained in a humidified 5% CO2, 95% air incubator at 37 C and fixed after given time periods with 4% paraformaldehyde for 45 minutes for immunocytochemical analysis.” left out
Fixed cultures were incubated with one of the following antibodies, diluted appropriately in phosphate-buffered saline (PBS) containing 1% bovine serum albumin and 0.3% Triton-X 100: mouse anti-BrdU, 1:50 (DAKO, Denmark), mouse anti-β-tubulin, Type III (TuJ1), 1:250 (Sigma), mouse anti-TH, 1:1000 (Incstar, USA), rabbit anti-β-galactosidase, 1:250 (Cappel, USA) rabbit anti-GFAP, 1:500 (DAKO, Denmark), rabbit anti-AHD-2, 1:4000. […] Quantitative immunocytochemical data represent means and standard errors from 100-500 cells counted in each of 3-6 separate wells from 2-4 experiments. For quantitation of TH expression in co-cultures of primary and C-17.2-derived cells, TH was visualized with the brightfield AEC substrate, while β-gal was assessed using FITC, thus all data expressed as “% TH+” represents the number of TH+/β-gal+divided by total β-gal positive cells.

| Molecule | neuritogenesis and/or hypertrophy [1] | induction of TH expression [2] | number of TH+ cells in the culture ([1]; compared to N2 control, NT-3 30 ng/ml) |
| --- | --- | --- | --- |
| B1 | induced neuritogenesis and/or hypertrophy | None of these factors induced TH expression in any of the clones | – |
| B2 | induced neuritogenesis and/or hypertrophy | None of these factors induced TH expression in any of the clones | – |
| B3 | induced neuritogenesis and/or hypertrophy | None of these factors induced TH expression in any of the clones | – |
| B4 | – | None of these factors induced TH expression in any of the clones | dramatically increased the number of TH+ cells |
